B1: Phospholipid-transporting ATPase IC (Homo sapiens), O43520 (parent)
chain: MSTERDSETTFDEDSQPNDEVVPYSDDETEDELDDQGSAVEPEQNRVNREAEENREPFRKECTWQVKANDRKYHEQPHFMNTKFLCIKESKYANNAIKTYKYNAFTFIPMNLFEQFKRAANLYFLALLILQAVPQISTLAWYTTLVPLLVVLGVTAIKDLVDDVARHKMDKEINNRTCEVIKDGRFKVAKWKEIQVGDVIRLKKNDFVPADILLLSSSEPNSLCYVETAELDGETNLKFKMSLEITDQYLQREDTLATFDGFIECEEPNNRLDKFTGTLFWRNTSFPLDADKILLRGCVIRNTDFCHGLVIFAGADTKIMKNSGKTRFKRTKIDYLMNYMVYTIFVVLILLSAGLAIGHAYWEAQVGNSSWYLYDGEDDTPSYRGFLIFWGYIIVLNTMVPISLYVSVEVIRLGQSHFINWDLQMYYAEKDTPAKARTTTLNEQLGQIHYIFSDKTGTLTQNIMTFKKCCINGQIYGDHRDASQHNHNKIEQVDFSWNTYADGKLAFYDHYLIEQIQSGKEPEVRQFFFLLAVCHTVMVDRTDGQLNYQAASPDEGALVNAARNFGFAFLARTQNTITISELGTERTYNVLAILDFNSDRKRMSIIVRTPEGNIKLYCKGADTVIYERLHRMNPTKQETQDALDIFANETLRTLCLCYKEIEEKEFTEWNKKFMAASVASTNRDEALDKVYEEIEKDLILLGATAIEDKLQDGVPETISKLAKADIKIWVLTGDKKETAENIGFACELLTEDTTICYGEDINSLLHARMENQRNRGGVYAKFAPPVQESFFPPGGNRALIITGSWLNEILLEKKTKRNKILKLKFPRTEEERRMRTQSKRRLEAKKEQRQKNFVDLACECSAVICCRVTPKQKAMVVDLVKRYKKAITLAIGDGANDVNMIKTAHIGVGISGQEGMQAVMSSDYSFAQFRYLQRLLLVHGRWSYIRMCKFLRYFFYKNFAFTLVHFWYSFFNGYSAQTAYEDWFITLYNVLYTSLPVLLMGLLDQDVSDKLSLRFPGLYIVGQRDLLFNYKRFFVSLLHGVLTSMILFFIPLGAYLQTVGQDGEAPSDYQSFAVTIASALVITVNFQIGLDTSYWTFVNAFSIFGSIALYFGIMFDFHSAGIHVLFPSAFQFTGTASNALRQPYIWLTIILAVAVCLLPVVAIRFLSMTIWPSESDKIQKHRKRLKAEEQWQRRQQVFRRGVSTRRSAYAFSHQRGYADLISSGRSIRKKRSPLDAIVADGTAEYRRTGDS
partner: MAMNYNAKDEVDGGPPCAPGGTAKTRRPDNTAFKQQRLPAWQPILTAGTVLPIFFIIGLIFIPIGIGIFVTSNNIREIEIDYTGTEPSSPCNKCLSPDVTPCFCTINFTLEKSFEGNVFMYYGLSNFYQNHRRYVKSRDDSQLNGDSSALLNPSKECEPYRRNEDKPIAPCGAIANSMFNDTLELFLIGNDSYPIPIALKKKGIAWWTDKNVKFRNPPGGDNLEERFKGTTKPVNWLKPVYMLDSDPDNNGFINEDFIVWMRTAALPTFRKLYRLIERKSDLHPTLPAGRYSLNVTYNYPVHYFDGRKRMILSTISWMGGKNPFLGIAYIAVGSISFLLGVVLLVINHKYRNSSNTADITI

Variants of: B1
Details: with cc50a_human TMEM30A

With I661T as the variant, how does the “effect of a mutation on the interaction” value read?
Its value is “decreasing interaction”.

With R867C as the variant, how does the “effect of a mutation on the interaction” value read?
Its value is “decreasing interaction”.

With D70N as the variant, how does the “effect of a mutation on the interaction” value read?
The value was “decreasing interaction”.

For G308V, which “effect of a mutation on the interaction” value is on record?
Its value is “disrupting interaction”.

How did the “effect of a mutation on the interaction” value turn out when D454A was run?
Its value is “disrupting interaction”.

G1040R was tested. Which “effect of a mutation on the interaction” value did it give?
The value was “decreasing interaction”.

With D554N as the variant, how does the “effect of a mutation on the interaction” value read?
The value was “disrupting interaction”.

Source: IntAct's records for PubMed 19731236
